Assay in all cases: SPR, KD relative to WT C2;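 further: biacore SPR at 37 °C, anti-C2 mAbs captured via immobilised goat anti-human IgG, C2 alanine or serine surface mutants as analytes, 1:1 model fitted, double-referenced sensograms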
In general terms: In SPR one partner is held on a chip, and binding of the other changes the refractive index at the surface.

For one assay, the target named is T1, human C2 I272A (human, UniProt P06681 21-752).
T1 sequence: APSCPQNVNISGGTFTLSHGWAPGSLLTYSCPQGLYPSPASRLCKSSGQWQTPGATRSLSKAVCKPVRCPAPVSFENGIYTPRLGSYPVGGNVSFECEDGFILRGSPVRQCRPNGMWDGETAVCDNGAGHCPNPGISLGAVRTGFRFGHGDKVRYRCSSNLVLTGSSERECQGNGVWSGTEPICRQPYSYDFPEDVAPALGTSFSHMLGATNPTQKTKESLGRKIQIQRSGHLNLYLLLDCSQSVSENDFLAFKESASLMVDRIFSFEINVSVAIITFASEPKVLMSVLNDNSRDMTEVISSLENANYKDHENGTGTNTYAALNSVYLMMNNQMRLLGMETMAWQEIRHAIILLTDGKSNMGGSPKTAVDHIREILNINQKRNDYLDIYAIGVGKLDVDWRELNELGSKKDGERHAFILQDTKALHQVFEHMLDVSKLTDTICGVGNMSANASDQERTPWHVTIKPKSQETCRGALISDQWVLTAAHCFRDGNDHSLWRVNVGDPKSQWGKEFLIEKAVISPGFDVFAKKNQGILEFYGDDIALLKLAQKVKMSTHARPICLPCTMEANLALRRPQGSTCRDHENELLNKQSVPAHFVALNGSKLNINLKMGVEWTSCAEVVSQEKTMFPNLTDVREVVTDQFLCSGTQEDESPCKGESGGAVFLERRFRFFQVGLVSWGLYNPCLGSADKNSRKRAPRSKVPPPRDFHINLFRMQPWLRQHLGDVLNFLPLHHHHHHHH

The next assay addresses T2, human C2 D710A (human, UniProt P06681 21-752).
T2 sequence: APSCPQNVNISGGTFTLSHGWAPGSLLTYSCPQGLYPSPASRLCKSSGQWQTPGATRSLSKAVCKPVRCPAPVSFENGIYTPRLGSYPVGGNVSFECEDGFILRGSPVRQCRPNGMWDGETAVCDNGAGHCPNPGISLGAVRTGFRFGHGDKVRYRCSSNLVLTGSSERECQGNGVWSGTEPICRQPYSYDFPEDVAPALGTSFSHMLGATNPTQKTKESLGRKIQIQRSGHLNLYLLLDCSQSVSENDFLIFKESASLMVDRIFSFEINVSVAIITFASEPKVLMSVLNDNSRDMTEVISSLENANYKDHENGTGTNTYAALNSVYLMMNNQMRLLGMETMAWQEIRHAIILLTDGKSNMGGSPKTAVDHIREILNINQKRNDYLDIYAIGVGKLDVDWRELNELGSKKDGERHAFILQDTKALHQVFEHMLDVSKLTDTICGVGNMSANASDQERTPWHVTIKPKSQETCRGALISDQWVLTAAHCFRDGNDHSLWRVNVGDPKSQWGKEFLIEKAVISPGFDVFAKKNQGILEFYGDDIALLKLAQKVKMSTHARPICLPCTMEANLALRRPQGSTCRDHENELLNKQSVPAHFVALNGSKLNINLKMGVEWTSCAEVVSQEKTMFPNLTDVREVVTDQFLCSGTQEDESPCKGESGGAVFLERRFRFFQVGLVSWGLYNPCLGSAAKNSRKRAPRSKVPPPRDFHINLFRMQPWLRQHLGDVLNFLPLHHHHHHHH

In another assay the target is T3, human C2 D511A (human, UniProt P06681 21-752).
T3 sequence: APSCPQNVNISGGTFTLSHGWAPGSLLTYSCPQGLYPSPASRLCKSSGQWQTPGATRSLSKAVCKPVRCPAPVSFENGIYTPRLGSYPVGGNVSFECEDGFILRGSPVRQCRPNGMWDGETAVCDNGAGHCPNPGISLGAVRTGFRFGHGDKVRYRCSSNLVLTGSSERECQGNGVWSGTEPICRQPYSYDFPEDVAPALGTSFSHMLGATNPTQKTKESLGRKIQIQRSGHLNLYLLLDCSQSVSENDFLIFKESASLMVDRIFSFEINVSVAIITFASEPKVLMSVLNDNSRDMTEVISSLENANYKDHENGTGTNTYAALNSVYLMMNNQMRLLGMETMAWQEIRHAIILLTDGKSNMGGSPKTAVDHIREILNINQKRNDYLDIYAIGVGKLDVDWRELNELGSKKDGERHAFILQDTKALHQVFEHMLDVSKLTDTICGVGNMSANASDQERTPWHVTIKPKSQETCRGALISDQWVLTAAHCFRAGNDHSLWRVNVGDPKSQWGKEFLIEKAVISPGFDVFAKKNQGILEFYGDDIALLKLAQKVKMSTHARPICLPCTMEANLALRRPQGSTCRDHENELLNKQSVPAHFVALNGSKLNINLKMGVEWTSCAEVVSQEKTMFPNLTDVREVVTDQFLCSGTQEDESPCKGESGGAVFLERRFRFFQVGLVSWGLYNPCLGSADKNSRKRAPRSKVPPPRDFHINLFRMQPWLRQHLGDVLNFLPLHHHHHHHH

For another assay, the target named is T4, human C2 K721A (human, UniProt P06681 21-752).
T4 sequence: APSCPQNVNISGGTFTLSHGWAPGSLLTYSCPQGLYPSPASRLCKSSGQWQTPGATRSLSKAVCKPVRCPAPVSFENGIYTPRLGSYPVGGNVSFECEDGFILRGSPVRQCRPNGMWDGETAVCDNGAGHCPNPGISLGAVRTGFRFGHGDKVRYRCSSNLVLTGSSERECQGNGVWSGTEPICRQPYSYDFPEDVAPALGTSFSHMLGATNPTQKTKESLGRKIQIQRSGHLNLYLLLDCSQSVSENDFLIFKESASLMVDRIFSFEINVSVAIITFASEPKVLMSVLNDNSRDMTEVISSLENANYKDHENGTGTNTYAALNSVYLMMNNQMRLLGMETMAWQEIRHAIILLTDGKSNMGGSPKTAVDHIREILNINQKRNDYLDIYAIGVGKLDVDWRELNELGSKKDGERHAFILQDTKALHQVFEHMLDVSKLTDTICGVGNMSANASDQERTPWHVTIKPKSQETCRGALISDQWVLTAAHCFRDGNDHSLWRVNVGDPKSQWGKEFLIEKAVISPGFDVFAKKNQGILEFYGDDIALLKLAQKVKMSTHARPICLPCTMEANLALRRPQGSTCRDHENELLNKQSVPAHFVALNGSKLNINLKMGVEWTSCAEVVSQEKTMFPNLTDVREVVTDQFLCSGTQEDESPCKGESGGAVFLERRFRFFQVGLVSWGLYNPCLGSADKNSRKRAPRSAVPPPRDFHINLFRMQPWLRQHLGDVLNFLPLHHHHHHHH

B1: RF16-226 (antibody, human IgG4 S228P, lambda)
heavy: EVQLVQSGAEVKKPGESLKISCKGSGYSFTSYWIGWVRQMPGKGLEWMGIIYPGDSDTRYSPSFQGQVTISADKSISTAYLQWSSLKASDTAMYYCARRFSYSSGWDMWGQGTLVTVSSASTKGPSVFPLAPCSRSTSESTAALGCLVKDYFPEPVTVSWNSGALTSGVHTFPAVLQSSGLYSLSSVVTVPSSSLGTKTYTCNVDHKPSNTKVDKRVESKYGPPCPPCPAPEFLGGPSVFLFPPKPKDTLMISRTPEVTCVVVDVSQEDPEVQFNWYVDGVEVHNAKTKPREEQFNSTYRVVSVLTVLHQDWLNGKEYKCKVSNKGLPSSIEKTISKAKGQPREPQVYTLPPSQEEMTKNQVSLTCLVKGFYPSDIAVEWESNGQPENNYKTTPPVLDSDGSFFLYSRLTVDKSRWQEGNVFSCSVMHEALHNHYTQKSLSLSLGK
light: SYELTQPPSVSVSPGQTARITCSGDALTSKYVAWYQQKSGLAPLLVIYEDTRRPSGIPAKFSGSSSGSVATLTISGAHGDDEADYYCYSTDASGHQRVFGGGTKLTVLSQPKAAPSVTLFPPSSEELQANKATLVCLISDFYPGAVTVAWKADGSPVKAGVETTKPSKQSNNKYAASSYLSLTPEQWKSHRSYSCQVTHEGSTVEKTVAPTECS
notes: pH-dependent anti-C2 antibody from a phage display library; also called WT
Regarding B1, the Fold diff in the assay with human C2 I272A came out at 1 fold; with human C2 D710A, 10 fold; in the assay with human C2 D511A it was 3 fold; with human C2 K721A, 10 fold.

The values above are taken from US20220332804A1 (CSL INNOVATION, published 2022).
